Experimental data published in PMC8041772, “Activation mechanism of a small prototypic Rec-GGDEF diguanylate cyclase” (Nature Communications, 2021).

Assays:
DgcR = target: T1, DgcR (Leptospira biflexa, UniProt B0SUI1); assay: crystal structure at […] Å (DgcR_inh); product-inhibition Ki from progress curves (oIEC), about […] for BeF3-activated and about […] for native enzyme; format: biochemical
T1 construct: gene LEPBI_p0053; full-length (298 residues), dimer
T1 sequence (B0SUI1 1-298): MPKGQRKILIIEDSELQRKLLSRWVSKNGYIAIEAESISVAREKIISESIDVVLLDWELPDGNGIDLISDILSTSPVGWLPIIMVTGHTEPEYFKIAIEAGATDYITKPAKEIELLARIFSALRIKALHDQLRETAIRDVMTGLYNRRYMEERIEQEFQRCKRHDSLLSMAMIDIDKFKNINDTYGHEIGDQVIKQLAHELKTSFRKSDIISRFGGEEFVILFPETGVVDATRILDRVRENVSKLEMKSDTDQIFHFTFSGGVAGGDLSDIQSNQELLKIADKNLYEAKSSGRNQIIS

[1] = target: DgcR (LEPBI_RS18680, diguanylate cyclase controlled by Rec) from Leptospira biflexa, wild type, native (Leptospira biflexa); assay: SEC-MALS; in-line multi-angle light scattering and refractive index; 100 µL loaded at 0.5 to 10 mg/mL with various ligands; 20 mM Tris pH 8.0, 500 mM NaCl (or 20 mM NaCl), 5 mM MgCl2, 1 mM DTT; substrate analogue, product or lower salt did not change the quaternary state
[2] = target: DgcR wild type, BeF3- modified (pseudo-phosphorylated, activated) (Leptospira biflexa); assay: as above

## Nc1nc2c(ncn2[C@@H]2O[C@@H]3CO[P@](=O)(O)O[C@H]4[C@@H](O)[C@H](n5cnc6c(=O)[nH]c(N)nc65)O[C@@H]4CO[P@](=O)(O)O[C@H]3[C@H]2O)c(=O)[nH]1 [c-di-GMP]
DgcR
  Ki: ~150 nM

## DgcR (LEPBI_RS18680, diguanylate cyclase controlled by Rec) from Leptospira biflexa, wild type, native (enzyme)
[1]
  stoichiometry N: 2

## DgcR wild type, BeF3- modified (pseudo-phosphorylated, activated) (enzyme)
[2]
  stoichiometry N: 2
